Assay results published in US20110305783A1, “Method and pharmaceutical composition for treating psoriasis, squamous cell carcinoma and/or parakeratosis by inhibiting expression of squamous cell carcinoma-related antigen” (Shiseido Company, Ltd., priority 2005, published 2011).
“Also recorded” adds a separate entry of the source. Read-outs that look alike come from different tables or passages of the source. Ends that are not written are not given here. * marks the point of attachment. Cbz = O=C(OCc1ccccc1)*; CH2F = FC*

T1: caspase-14 (Homo sapiens, UniProt P31944)
T1 construct: human caspase-14 is purified in the form of a heterodimer composed of a large subunit (17 KDa) and a small subunit (11 KDa); from tissue; host or cells: human cornified cells (heel stratum corneum)
T1 sequence (P31944 6-146 limits assumed): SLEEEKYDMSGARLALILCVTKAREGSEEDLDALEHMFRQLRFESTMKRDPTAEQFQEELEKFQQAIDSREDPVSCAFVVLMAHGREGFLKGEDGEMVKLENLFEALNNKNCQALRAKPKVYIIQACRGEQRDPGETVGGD
T1 sequence (P31944 153-242 limits assumed): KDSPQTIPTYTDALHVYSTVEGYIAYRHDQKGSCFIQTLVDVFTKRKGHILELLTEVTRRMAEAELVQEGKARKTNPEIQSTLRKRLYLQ

T2: caspase-3 (Homo sapiens, UniProt P42574)
T2 construct: purchased BIOMOL Research Labs, Inc. (Plymouth Meeting, Pa.)
T2 sequence (P42574 29-277): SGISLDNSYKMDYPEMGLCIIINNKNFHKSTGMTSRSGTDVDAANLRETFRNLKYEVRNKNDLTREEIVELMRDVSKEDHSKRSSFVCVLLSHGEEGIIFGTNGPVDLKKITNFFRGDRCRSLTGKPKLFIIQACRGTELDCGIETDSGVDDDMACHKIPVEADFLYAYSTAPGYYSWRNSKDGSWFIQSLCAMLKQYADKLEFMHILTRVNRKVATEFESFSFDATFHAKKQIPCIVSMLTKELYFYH


Legend:
Type in all cases: biochemical
[1] = biological target: T1, caspase-14; test: Inhibitor assay on purified caspase-14, WEHD-MCA hydrolysis activity
Method: Caspase-14 was incubated with peptide inhibitors of caspase (consisting of YVAD, VDVAD, DEVD, VEID, IETD, LEHD and DNLD) and class-specific inhibitors of cysteine proteinase (IAA) and serine proteinase (AEBSF). Residual enzyme activity was measured using WEHD-MCA as substrate in the presence of 1.3 M sodium citrate and 5 mM DTT. […] The values are shown as the average values of duplicate assays.
Briefly, the assay mixture was prepared from 45 μl of 0.1 M HEPES buffer (pH 7.5), 0.06 M NaCl, 0.01% CHAPS, 5 mM DTT, 1.3 M sodium citrate and 10 μM WEHD-MCA (all concentrations indicate the final concentrations). An enzyme sample (5 μl) was added to this mixture followed by incubating for 10 to 30 minutes. The reaction was stopped with 150 μl of 0.1 M monochloroacetic acid, and measurements were performed at an excitation wavelength of 355 nm and emission wavelength of 460 nm using Fluoroskan Ascent FL (Thermo Electron Co., Wolsam, Mass.). In the case of the inhibitor assay, caspase-14 and peptide inhibitor were incubated in the assay buffer for 15 minutes, and the assay was started with the addition of 5 μl of 100 μM WEHD-MCA.
Human cornified cells (approx. 14 g) scraped from the heels of healthy individuals were extracted with 0.1 M Tris-HCl (pH 8.0) containing 0.14 M NaCl using a glass homogenizer. A supernatant was obtained after centrifuging at 15,000 g for 60 minutes. After concentrating with Amicon Ultra (Millipore, Mass.) and desalting with the Fast Desalting Column HR10/10 (Amersham Biosciences), the crude product was applied to a HiPrep 16/10 QXL column. […] In addition, hydrolysis activity with respect to Ac-[…]-Glu-His-Asp-methyl-coumarin amide (WEHD-MCA) (Peptide Institute, Inc., Osaka, Japan) was measured for each fraction. Positive fractions were placed on a Mono Q column equilibrated with the same buffer and eluted a maximum NaCl gradient of 1 M. The caspase-14 fraction was further separated by Mono S cationic exchange chromatography. The column was equilibrated with 20 mM acetate buffer (pH 4.5) and eluted at an NaCl gradient of 0 to 1 M. Positive fractions were concentrated and placed on a chromatofocusing Mono P column equilibrated with 25 mM ethanolamine (pH 8.3). The column was eluted while forming a pH gradient from 8 to 5 using 46 ml of Polybuffer (pH 5.0). The caspase-14 was finally purified using Superdex 75 gel chromatography. The protein concentration was determined with the BioRad Protein Assay Kit (BioRad Lab, Hercules, Calif.).

[2] = biological target: T1, caspase-14; test: ICAD decomposition by purified caspase-14, Western blot; settings: pre-incubation with 10 μM SCCA-1, kosmotropic salt, Western blot (FIG. 10B)
Method: (§1) ICAD decomposition was only observed in the presence of kosmotropic salt. […] When SCCA-1 was added to the mixture, ICAD decomposition was virtually not detected, and there were still no effects after incubating for 16 hours (B). (C) The results are shown of investigating hydrolysis activity on synthetic caspase substrates in the presence of kosmotropic salt.
The inventors of the present invention tested the effects of caspase-14 on ICAD during the course of searching for natural substrates of caspase-14. This is because disappearance of the nucleus is an extremely important event for terminal differentiation.
(§2) Although SCCA-1 is a member of the serpin superfamily, it inhibits cysteine proteases such as papain and cathepsin L (Takeda, A., et al., Biol. Chem., 383, 1231-6 (2002)). […] Thus, the inventors of the present invention conducted a test as to whether or not SCCA-1 is able to inhibit caspase members. Kosmotropic conditions were used in the case of caspase-14. […] Recovery of enzyme activity was not observed even if the incubation time increased.

[3] = test system: Recombinant caspases-1 to 10; test: Recombinant caspases incubated with SCCA-1, hydrolysis of synthetic caspase substrates; settings: recombinant caspase incubated with SCCA-1 (FIG. 10C)
Method: as §1
Benzyloxycarbonyl (Z)-YVAD-FMK, Z-VDVSD-FMK, Z-DEVD-FMK, Z-VEID-FMK, Z-IETD-FMK, Z-LEHD-FMK and Z-VAD-FMK were purchased from BioVision (Mountain View, Calif.). Recombinant caspases-1 to 10 were obtained from BIOMOL Research Labs, Inc. (Plymouth Meeting, Pa.).
as §2

[4] = biological target: T2, caspase-3; test: Caspase-3 activity with SCCA-1, synthetic substrate DEVD-MCA or natural substrate ICAD
Description: The enzymatic characteristics of purified caspase-14 were extremely unique. […] The inventors of the present invention determined for the first time that SCCA-1 is an intrinsic inhibitor against caspase-14. The most unique characteristic of SCCA-1 is its remarkable specificity for caspase-14. Other members of caspase-1 to -10 are not affected by SCCA-1. […] Crm A belongs to the serpin superfamily and is known to be able to inhibit a large number of caspases including caspase-1 and caspase-8 (Gagliardini, V., et al., Science 263, 826-(1994)). XIAP is known to inhibit caspase-3, -7 and -9 (Srinivasula, S. M., et al., Nature 410, 112-6 (2001)). Since the anti-apoptotic protein p35 inhibits caspase-1, -3, -6, -7, -8 and -10, it is considered to have a broader spectrum.

[5] = inhibitors at 5, 2.5 and 1.25 μM, WEHD-MCA substrate, 1.3 M sodium citrate, 5 mM DTT

| Inhibitory effect on purified caspase-14 activity [1, 5] | Molecule | further results |
| --- | --- | --- |
| – | O=C(O)CI [IAA, iodoacetic acid] | Inhibitory effect on purified caspase-14 activity [1]: did not exhibit significant inhibitory effects |
| sensitivity | DEVD-FMK: caspase-3 inhibitor | – |
| sensitivity | IETD-FMK: caspase-8 inhibitor (Cbz-IETD-CH2F) | – |
| sensitivity | LEHD-FMK: caspase-9 inhibitor (Cbz-LEHD-CH2F) | – |
| sensitivity | VDVAD-FMK: caspase-2 inhibitor (VDVAD-CH2F) | – |
| hardly any effect | VEID-FMK: peptide inhibitor of caspase (Cbz-VEID-CH2F) | – |
| – | SCCA-1: recombinant squamous cell carcinoma antigen 1, member of the serpin superfamily, intrinsic inhibitor of caspase-14 (protein) MNSLSEANTKFMFDLFQQFRKSKENNIFYSPISITSALGMVLLGAKDNTAQQIKKVLHFDQVTENTTGKAATYHVDRSGNVHHQFQKLLTEFNKSTDAYELKIANKLFGEKTYLFLQEYLDAIKKFYQTSVESVDFANAPEESRKKINSWVESQTNEKIKNLIPEGNIGSNTTLVLVNAIYFKGQWEKKFNKEDTKEEKFWPNKNTYKSIQMMRQYTSFHFASLEDVQAKVLEIPYKGKDLSMIVLLPNEIDGLQKLEEKLTAEKLMEWTSLQNMRETRVDLHLPRFKVEESYDLKDTLRTMGMVDIFNGDADLSGMTGSRGLVLSGVLHKAFVEVTEEGAEAAAATAVVGFGSSPTSTNEEFHCNHPFLFFIRQNKTNSILFYGRFSSP | Inhibition of ICAD cleavage by caspase-14 [2]: inhibited decomposition of ICAD; also recorded: completely inhibited; Effect on enzyme activity of caspase members (1 to 10) [3]: None of the caspase members (1 to 10) were affected; Inhibition of caspase-3 activity [4]: did not inhibit |

| Molecule | Inhibitory effect on purified caspase-14 activity [1, 5] | further results |
| --- | --- | --- |
| NCCc1ccc(S(=O)(=O)F)cc1 [ABBSF, 4-(2-aminoethyl)benzenesulfonyl fluoride] | did not exhibit significant inhibitory effects | – |
| Benzyloxycarbonyl (Z)-YVAD-FMK | extremely potent inhibitory effects; also recorded: most potent inhibitory action | – |
| VAD-FMK: pan-caspase inhibitor (Cbz-Val-Ala-Asp-CH2F) | sensitivity; also recorded: one of the most potent caspase-14 inhibitors | – |
